From US20110313230A1 come the findings set out here.

Test [1] concerns the target wild-type EGFR (human) (UniProt P00533). The experiment in a line: Scatchard, 125I-528 on A431 cells.
Test [2] shares this target. Briefly: immunohistochemistry, glioblastoma pre-typed: EGFR amplified, no de2-7 EGFR expression.
In test [3] the target is de2-7 EGFR (human) (UniProt P00533). Briefly: immunohistochemistry, glioblastoma pre-typed: EGFR amplified, de2-7 EGFR expressed.

mAb528 (antibody) showed a receptors per cell (receptors per cell) in test [1] of 2e+06. Also, the percent of immunoreactive cells in test [2] and in test [3] was more than 75% throughout.
